The supplement of paper PMC10126150
± gives the standard deviation of the averaged measurements.

Tested on: ATP
Assay: switch fluorescence ratio, 500 uM ATP over buffer (Cy3 cluster intensity, sum of 5 cycles each) (fold (ratio)); higher = stronger signal-on switching upon ATP binding; sequences stand for … in TCGTCGGCAGCGTCAGATGTGTATAAGAGACAGTTTTTTTTTTTTTTTTTTTTTTTTT…TC
Details: aptamer strand: ATP DNA aptamer (quencher-CACCTGGGGGAGTATTGCGGAGGAAGG + anchor), 100 nM annealed; ATP concentration: 500 uM
Summary of the method: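 Clusters with intensities outside 100-1000 RFU were excluded. The remaining Cy3-labelled switching-strand clusters on a modified Illumina MiSeq flow-cell had been annealed to 100 nM quencher-labelled ATP aptamer and imaged in selection buffer, then after 15 min with 500 uM ATP at 22 °C, for five cycles separated by NaOH stripping and re-annealing. The fluorescence ratio, averaged per switch-domain sequence, is each cluster's summed target-cycle Cy3 intensity over its summed buffer-cycle Cy3 intensity.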
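Also: ATP exposure 15 min at 22 °C before imaging.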

## CAAGAGGGGT
  switch fluorescence ratio: 1.01 ± 0.016

## GTTTCAGGCT
  switch fluorescence ratio: 0.9888 ± 0.0041

## AGGGAGTTAA
  switch fluorescence ratio: 0.973 ± 0.054

## TCGTATTCGG
  switch fluorescence ratio: 0.992 ± 0.025

## GTTTTAATTT
  switch fluorescence ratio: 0.988 ± 0.019

## TATTTTAGTA
  switch fluorescence ratio: 1.01 ± 0.03

## TTTGTTCATT
  switch fluorescence ratio: 0.953 ± 0.019

## TGAATGTGGT
  switch fluorescence ratio: 0.97 ± 0.014

## GTAATAGAGA
  switch fluorescence ratio: 1.01 ± 0.043

## CGCGTCTCCC
  switch fluorescence ratio: 3.58 ± 0.38

## TGTTTGGGAA
  switch fluorescence ratio: 1 ± 0.038

## CGGTGACTCG
  switch fluorescence ratio: 1.03 ± 0.029

## GTTGTATGGA
  switch fluorescence ratio: 0.995 ± 0.034

## CGGTTTTAGC
  switch fluorescence ratio: 0.968 ± 0.042

## TCTACGGGGG
  switch fluorescence ratio: 1.032 ± 0.0024

## TTGCTGTGTG
  switch fluorescence ratio: 1.011 ± 0.0042

## TCTTTGGGAC
  switch fluorescence ratio: 0.994 ± 0.028

## TTGTCGGGTG
  switch fluorescence ratio: 1.03 ± 0.089

## AAAAGAGGGG
  switch fluorescence ratio: 1 ± 0.031

## TAAAGAAACT
  switch fluorescence ratio: 1.28 ± 0.35

## GATTAAAACT
  switch fluorescence ratio: 1.07 ± 0.025

## GTGACTTCAA
  switch fluorescence ratio: 1.027 ± 0.0059

## GGGGGGCATT
  switch fluorescence ratio: 0.99 ± 0.033

## CAACATCTCG
  switch fluorescence ratio: 0.993 ± 0.019

## AAATGATTGG
  switch fluorescence ratio: 0.982 ± 0.019

## ATGATGGCTT
  switch fluorescence ratio: 1.006 ± 0.0027

## ATTGCGGGTA
  switch fluorescence ratio: 0.992 ± 0.042

## CCTTAAGGCG
  switch fluorescence ratio: 1.023 ± 0.0026

## TTAGTCCCCG
  switch fluorescence ratio: 1.02 ± 0.038

## TGTTGGACGT
  switch fluorescence ratio: 1.036 ± 0.0024

## TGGGAAGTTT
  switch fluorescence ratio: 0.978 ± 0.013

## AAGAGGGGCG
  switch fluorescence ratio: 1.022 ± 0.0032

## AGTTTATAGA
  switch fluorescence ratio: 1.01 ± 0.023

## GCATAAACGC
  switch fluorescence ratio: 1.06 ± 0.044

## AGTTGTAAGG
  switch fluorescence ratio: 0.962 ± 0.014

## AATTGTCATT
  switch fluorescence ratio: 1.01 ± 0.019

## TGACGAGCTG
  switch fluorescence ratio: 1.03 ± 0.035

## GGCTCAGGTA
  switch fluorescence ratio: 1.04 ± 0.013

## TGGGGAGGGA
  switch fluorescence ratio: 0.983 ± 0.033

## GAGGTTATAC
  switch fluorescence ratio: 1.38 ± 0.042

## GCTTCTTGGC
  switch fluorescence ratio: 0.967 ± 0.034

## GCTTTAGCAG
  switch fluorescence ratio: 1.03 ± 0.02

## GGTGCATGAC
  switch fluorescence ratio: 1.39 ± 0.0037

## GGGGGGTATT
  switch fluorescence ratio: 0.987 ± 0.037

## AATAGGTGGG
  switch fluorescence ratio: 0.951 ± 0.016

## AAGGTGGGTT
  switch fluorescence ratio: 1.01 ± 0.059

## GGGGCTGGAG
  switch fluorescence ratio: 1.03 ± 0.063

## AGTTAATGCT
  switch fluorescence ratio: 0.9856 ± 0.0026

## GGGTCTTATG
  switch fluorescence ratio: 1.03 ± 0.078

## GAGTTCGCGT
  switch fluorescence ratio: 1.093 ± 0.0049

## GGATATGATC
  switch fluorescence ratio: 1.03 ± 0.031

## TATGGTCATA
  switch fluorescence ratio: 0.999 ± 0.032

## AAGCGAAAAA
  switch fluorescence ratio: 1.01 ± 0.092

## CTCTCTAGCT
  switch fluorescence ratio: 1.035 ± 0.01

## ACCGCGGTCG
  switch fluorescence ratio: 0.974 ± 0.049

## TGGGGCAGCG
  switch fluorescence ratio: 1.007 ± 0.0039

## TTAACAGTGG
  switch fluorescence ratio: 0.989 ± 0.032

## TTTTGGAACG
  switch fluorescence ratio: 0.99 ± 0.031

## CAGGTTTAAG
  switch fluorescence ratio: 0.975 ± 0.055

## CGTGTTAGGG
  switch fluorescence ratio: 1.0062 ± 0.00077

## TTTTAGGTGT
  switch fluorescence ratio: 1.28 ± 0.26

## TTAGTGTACT
  switch fluorescence ratio: 1.07 ± 0.038

## CCTAGGGGAA
  switch fluorescence ratio: 1.02 ± 0.022

## TTGTGACATA
  switch fluorescence ratio: 1 ± 0.023

## TTAGGGTTGG
  switch fluorescence ratio: 0.99 ± 0.034

## AGGTTGCGCG
  switch fluorescence ratio: 1.009 ± 0.0079

## CCTGGGGGAT
  switch fluorescence ratio: 1.75 ± 0.43

## CAAGGGGACG
  switch fluorescence ratio: 1.004 ± 0.0082

## CCAATTTTAC
  switch fluorescence ratio: 1.39 ± 0.055

## TTTGAGGTGA
  switch fluorescence ratio: 1.04 ± 0.07

## AAAGGCAAAG
  switch fluorescence ratio: 0.9971 ± 0.0082

## TTTTTGCTTT
  switch fluorescence ratio: 1.06 ± 0.099

## TGTTAGTTTT
  switch fluorescence ratio: 0.981 ± 0.013

## GGATCTTTAT
  switch fluorescence ratio: 0.9932 ± 0.0096

## CGTAAGGGGA
  switch fluorescence ratio: 1.05 ± 0.064

## ACTGACAGCG
  switch fluorescence ratio: 1.0189 ± 0.00036

## ACGAAAGGTT
  switch fluorescence ratio: 1.034 ± 0.0089

## GGGGCGGGGG
  switch fluorescence ratio: 1.02 ± 0.043

## CGGTTAGATA
  switch fluorescence ratio: 0.987 ± 0.019

## TATAATGGTG
  switch fluorescence ratio: 0.976 ± 0.021

## CAAGCGGATT
  switch fluorescence ratio: 1 ± 0.033

## AAAGTTTACA
  switch fluorescence ratio: 1.03 ± 0.014

## AGGGTTAGGC
  switch fluorescence ratio: 0.933 ± 0.02

## TCTGTGTATT
  switch fluorescence ratio: 1.03 ± 0.037

## CACTGGGGGA
  switch fluorescence ratio: 0.9949 ± 0.0013

## ACAGGGGGCT
  switch fluorescence ratio: 1.04 ± 0.051

## ATGTGCTTAG
  switch fluorescence ratio: 1.04 ± 0.084

## GTTTCGTTTC
  switch fluorescence ratio: 1.01 ± 0.025

## CCCGGCGAGT
  switch fluorescence ratio: 1.08 ± 0.038

## GTTGAATTAA
  switch fluorescence ratio: 0.985 ± 0.041

## AAAATTATCT
  switch fluorescence ratio: 1.01 ± 0.021

## GCTATTTACT
  switch fluorescence ratio: 1.06 ± 0.076

## GGGGGAAACG
  switch fluorescence ratio: 0.989 ± 0.031

## TGGATGGCGT
  switch fluorescence ratio: 1.101 ± 0.0046

## CCTCTATTCT
  switch fluorescence ratio: 1.1 ± 0.026

## GGTGGTGTCG
  switch fluorescence ratio: 1 ± 0.017

## CATGAAAAGT
  switch fluorescence ratio: 0.978 ± 0.047

## GATGTCAGGT
  switch fluorescence ratio: 1.03 ± 0.044

## TTTTGGATAA
  switch fluorescence ratio: 1.016 ± 0.0051

## CGTTTCGAAT
  switch fluorescence ratio: 0.96 ± 0.027

## GGGGTAACGT
  switch fluorescence ratio: 0.983 ± 0.02

## AAAGGGGGTC
  switch fluorescence ratio: 1.01 ± 0.039

## GGTGATGCGC
  switch fluorescence ratio: 0.978 ± 0.034

## AAGGGAAGGG
  switch fluorescence ratio: 0.998 ± 0.025

## ATGAAGAGGG
  switch fluorescence ratio: 0.997 ± 0.045

## TTTCAGTCCC
  switch fluorescence ratio: 0.993 ± 0.052

## TCGATAGGGG
  switch fluorescence ratio: 0.98 ± 0.054

## TTTTTTAGGG
  switch fluorescence ratio: 0.988 ± 0.029

## CCATTGTTTT
  switch fluorescence ratio: 0.997 ± 0.018

## TTATGGGAGT
  switch fluorescence ratio: 0.966 ± 0.026

## AAAAATGGTT
  switch fluorescence ratio: 1.02 ± 0.014

## ACTAAGTAAC
  switch fluorescence ratio: 1.04 ± 0.037

## GCTATTCGAA
  switch fluorescence ratio: 1.01 ± 0.061

## GCGAGTATGC
  switch fluorescence ratio: 1.03 ± 0.02

## TATCAATTCG
  switch fluorescence ratio: 0.997 ± 0.036

## GGTACAGGGA
  switch fluorescence ratio: 1.02 ± 0.015

## CTCAGGCAAT
  switch fluorescence ratio: 2.61 ± 0.45

## GTCGAAGGTG
  switch fluorescence ratio: 1.11 ± 0.03

## GATGTGGGGC
  switch fluorescence ratio: 0.996 ± 0.029

## TTATGCCGGT
  switch fluorescence ratio: 1.02 ± 0.068

## TTTTGTTGTG
  switch fluorescence ratio: 0.999 ± 0.034

## GGTGTGCACC
  switch fluorescence ratio: 1 ± 0.025

## TCCTTCTCTT
  switch fluorescence ratio: 1.05 ± 0.021

## ATGTTTGCCT
  switch fluorescence ratio: 1.002 ± 0.0087

## CACGGGGAAC
  switch fluorescence ratio: 1.28 ± 0.32

## TGTTGTTATC
  switch fluorescence ratio: 0.974 ± 0.038

## GGTAGGTGGC
  switch fluorescence ratio: 0.952 ± 0.027

## TATGTCATCG
  switch fluorescence ratio: 1.01 ± 0.028

## CGGGTGCCAT
  switch fluorescence ratio: 0.994 ± 0.018

## AGATTGTACA
  switch fluorescence ratio: 1.02 ± 0.02

## GACGGACAGG
  switch fluorescence ratio: 1.06 ± 0.024

## GGAAAAAGCC
  switch fluorescence ratio: 0.9562 ± 0.0042

## TGGCCGGGAT
  switch fluorescence ratio: 0.996 ± 0.021

## TGTGTCAGTG
  switch fluorescence ratio: 1.01 ± 0.081

## GATAGGGGTG
  switch fluorescence ratio: 1.03 ± 0.03

## TGATGGGTTT
  switch fluorescence ratio: 0.971 ± 0.043

## CGATCGGCTG
  switch fluorescence ratio: 0.993 ± 0.019

## TGTTAATATT
  switch fluorescence ratio: 0.989 ± 0.018

## GGAACAGGTG
  switch fluorescence ratio: 3.49 ± 2

## GACTGGGTCG
  switch fluorescence ratio: 1.06 ± 0.012

## CCAGTACTTC
  switch fluorescence ratio: 1.11 ± 0.023

## AAGGAATCGC
  switch fluorescence ratio: 1 ± 0.027

## TAGGTTGTTG
  switch fluorescence ratio: 0.969 ± 0.011

## GGTAGCGAAA
  switch fluorescence ratio: 1.009 ± 0.0051

## GCGTGAGGGG
  switch fluorescence ratio: 1.03 ± 0.05

## ATGGCGTAGT
  switch fluorescence ratio: 0.975 ± 0.036

## CGGGCGCTGT
  switch fluorescence ratio: 1.06 ± 0.061

## ACCGGGAAAG
  switch fluorescence ratio: 1.062 ± 0.0096

## TAGGTAAAGT
  switch fluorescence ratio: 0.981 ± 0.03

## TCAATCGTGG
  switch fluorescence ratio: 1.01 ± 0.021

## ATTTGTGATG
  switch fluorescence ratio: 0.994 ± 0.047

## TTGCTCTGGA
  switch fluorescence ratio: 1.02 ± 0.015

## TGGGATTTGT
  switch fluorescence ratio: 0.9881 ± 0.0029

## GGTTGTCTTA
  switch fluorescence ratio: 0.9726 ± 0.0018

## TAATACTTTT
  switch fluorescence ratio: 1.07 ± 0.098

## GTAATAAGAT
  switch fluorescence ratio: 0.996 ± 0.0046

## GGCCCGCGTT
  switch fluorescence ratio: 1.11 ± 0.065
